Data published in the supplement of paper PMC6755084.

tested on: F1*sub RNA substrate (template-directed ligation); test: fraction ligated after 30 min (ligated reads / total reads); higher = more ligase activity; sequences stand for … in GAGACCGCAACTGAAAAGTTGT…AGTTCTGCACGTAGAAGCAAAAGGC; conditions: 42 °C
How it was run: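 Ligase ribozyme variants were made from oligo-pool templates by PCR amplification, T7 transcription and gel purification. After gel separation, ligated and unligated bands were reverse transcribed with barcoded primers and sequenced on a MiSeq, with core bases filtered at quality ≥20. The fraction ligated for each variant was the number of ligated reads divided by total reads.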

Sequence	fraction ligated
TATCTTGTCGTAAGAACTTTGGATGGGTTGA [3d748]	0.841
TTCATTGTCGTAAGACATTTGGATGGGTTGA [3d328]	0.5
TTCACTTGTCTAGACACTTTGGATGGGTTGA [3d403]	0.703
TATCATTGTCTAAGACATTTGGATGGGTTGA [3d1193]	0.778
TATACTTGTCGTAAACACTTTGGATGGGTTA [3d891]	0.00216
TATCACTTTCGTAAGACACTTTGGATGGTTA [3d1581]	0.0764
TTCACTTGCGTAAGACACTTTGGATGGGTTA [3d385]	0.0657
TATCACTTGTCGTAAGACACTTTGGTGGTTG [3d2274]	0.0129
TATCACTTTCAAGACACTTTGGATGGGTTGA [3d1479]	0.772
TATCACTTGTGTAAGACATTGGATGGGTTGA [3d1779]	0.848
ATCACTTGTCGTAAGACACTTTGATGGGTTA [3d264]	0.0628
ACACTTGTCGTAAGACACTTTGGATGGGTTG [3d45]	0.739
TTCACTTGTCGTAAGACACTTTGATGGGTTG [3d496]	0.298
TTCCTTGTCGTAAGACACTTTGGATGGGTTGA [2d26]	0.778
TATCACTTTCTAGACACTTTGGATGGGTTGA [3d1480]	0.765
TATCAGTCGTAAGACACTTTGGATGGGTTGA [3d1121]	0.764
TTCACTTGTCGTAAGACACTGGATGGGTTGA [3d484]	0.705
TATCACTTGTCGTAAGAACTTTGTGGGTTGA [3d2167]	0.0101
TATCACTTGTCGTAGACACTTGGATGGTTGA [3d2039]	0.095
TATACTTGTCGTAAACACTTTGGTGGGTTGA [3d888]	0.019
TACACTTGCGTAAGACACTTTGGATGGGTTA [3d615]	0.013

Sequence	fraction ligated
TAACTTGTCGTAAGACACTTTGGATGGGTTA [3d526]	0.0297
TATCACTTTCGTAGACACTTTGGAGGGTTGA [3d1515]	0.0412
TATCACTTGTTAAGACACTTTGGATGGTTGA [3d1715]	0.348
TATACTTGTCGTAGCACTTTGGATGGGTTGA [3d872]	0.787
TATCACTTGTCGAGACACTTGGATGGGTTGA [3d1908]	0.793
TATCTTGTCGTAAGCACTTTGGATGGGTTGA [3d747]	0.743
ATCACTTGTCGTAAGACACTTTGGTGGGTTG [3d269]	0.0136
TACACTTGTCGAAGACACTTTGGATGGTTGA [3d656]	0.505
TATCACTTGTCGTAAGACACTTGGATGGTTGA [2d280]	0.0762
TATCATGTCGTAAGACACTTTGATGGGTTGA [3d1134]	0.816
TATCACTTGTCGAAGACACTTGGATGGGTTG [3d1963]	0.794
TTCACTTGTCGTAAACACTTTGGTGGGTTGA [3d447]	0.0202
ATCACTTGTCGTAAGACACTTGGATGGGTTG [3d259]	0.687
TATCACTTCGTAAGCACTTTGGATGGGTTGA [3d1316]	0.797
TATCACTTGTCGTAGCACTTTGATGGGTTGA [3d2007]	0.761
TATCACTTGTCGTAAGACATTTGGTGGTTGA [3d2221]	0.0037
TATCCTTGTCGTAGACACTTTGGATGGGTTA [3d1053]	0.398
TTACTTGTCGAAGACACTTTGGATGGGTTGA [3d284]	0.131
TATACTTGCGTAAGACCTTTGGATGGGTTGA [3d819]	0.629
TATCATTGTCGTAAGACACTTGGATGGTTGA [3d1273]	0.395
TATCACTTGTCGTAAGCACTTTGATGGGTTG [3d2140]	0.677

Sequence	fraction ligated
TACACTTGTCGTAAGCACTTTGGATGGGTTGA [2d58]	0.183
TTCACTTGTCGTAAACACTTGGATGGGTTGA [3d445]	0.0492
TATCCTTGCGTAAGACACTTTGGATGGGTTGA [2d92]	0.803
TATACTTGTCGTAAGACACTTTGGATGGTTGA [2d87]	0.127
ATCACTTGTGTAAACACTTTGGATGGGTTGA [3d159]	0.837
TTCACTTGTCGTAAACCTTTGGATGGGTTGA [3d443]	0.514
TATACTTGTCGTAGACACTTTGGTGGGTTGA [3d878]	0.0282
TTCACTTTCGTAAGACACTTTGATGGGTTGA [3d365]	0.0352
TATCACTTGTCGTAACATTTGGATGGGTTGA [3d1995]	0.84
TATACTGTCGTAAGACACTTTGGATGGGTTG [3d795]	0.683
ACACTTGTCGTAAGACACTTTGGAGGGTTGA [3d42]	0.115
TATCACTTGTGTAAGCACTTTGGATGGGTTA [3d1762]	0.831
TATCACTTGCGTAAGACATTTGGAGGGTTGA [3d1677]	0.0596
TATCACTTGTCGTAGACATTTGGATGGGTTGA [2d226]	0.842
TATCCTTGTCGTAAGCACTTTGGATGGGTTG [3d1074]	0.768
GTATCACTTGTCGTAAGACACTTTGGATGGTTGA [s35]	0.242
TATACTTGTCTAAACACTTTGGATGGGTTGA [3d845]	0.791
ATCACTTGTGTAAGACATTTGGATGGGTTGA [3d163]	0.798
TTCACTTGTCGTAAACACTTTGGATGGGTTGA [2d35]	0.646
TATCACTTGTCGAAACACTTTGGAGGGTTGA [3d1921]	0.0563
TTCACTTGTCGTAAGACACTTTGTGGGTTGA [3d492]	0.0104

Sequence	fraction ligated
TTCACTTGTCGTAGACACTTTGGTGGGTTGA [3d437]	0.0435
TACCTTGTCGTAAGACACTTTGGTGGGTTGA [3d542]	0.744
TATCACTTGTGTAAGACACTTTGGATGGGTTG [2d193]	0.845
TATCACTTGTCTAAGACACTTTGGTGGGTTG [3d1894]	0.0778
ATCACTTGTCGTAAGACACTTTGGTGGTTGA [3d267]	0.0134
TATCACTTGTCGAGACACTTTGATGGGTTGA [3d1909]	0.74
TATCACTTGTCGTAGAATTTGGATGGGTTGA [3d2013]	0.832
TTCACTTGCTAAGACACTTTGGATGGGTTGA [3d372]	0.729
ATACTTGCGTAAGACACTTTGGATGGGTTGA [3d50]	0.177
TATCACTTGTCTAAGAACTTTGGTGGGTTGA [3d1859]	0.162
TAACTTTCGTAAGACACTTTGGATGGGTTGA [3d510]	0.0478
TTCACTTGTCGAAGACATTTGGATGGGTTGA [3d421]	0.79
TATCACTTGTGTAAGACACTTTGGAGGGTTG [3d1805]	0.0238
TATCATTTCGTAAGACACTTTGGATGGGTTA [3d1154]	0.313
TATCACTTGCGTAAACATTTGGATGGGTTGA [3d1641]	0.822
TATCACTTGTCGTAGACACTTTGAGGGTTGA [3d2044]	0.0374
TATCCTTGCGTAAGACACTTTGGATGGGTTA [3d998]	0.403
TATCACTTGTCGTAGCACTTTGGTGGGTTGA [3d2008]	0.0859
TATACTTGTCGAAGACATTTGGATGGGTTGA [3d862]	0.762
ATCACTGTCGTAAGACACTTTGGATGGTTGA [3d121]	0.46
